According to the supplement of paper PMC9170038:

Tested on: MS2 coat protein
Assay: apparent KD of MS2 coat protein; designed switch direction (-1 OFF switch, 1 ON switch): -1; higher = weaker reporter binding
Method in brief: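 SNAP-549-labelled MS2 coat protein was titrated, doubling from 0.7 or 1.5 nM to 3 µM, over designed RNA switches transcribed on Illumina chips by stalled E. coli RNA polymerase. Runs were done without input, with 200 uM small-molecule ligand, or with an oligonucleotide input. Apparent KD is the per-design median over clusters of curve-fitted normalised fluorescence.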

[1] = Eterna round: R95, input ligand: FMN 200 uM
[2] = Eterna round: R95, input ligand: microRNA oligo, concentration not stated
[3] = Eterna round: R95, input ligand: none
[4] = input ligand: microRNA oligo, concentration not stated

Row | Sequence | apparent KD of MS2 coat protein [1] [nM] | apparent KD of MS2 coat protein [2] [nM] | apparent KD of MS2 coat protein [3] [nM] | apparent KD of MS2 coat protein (input ligand: FMN 200 uM) [nM] | apparent KD of MS2 coat protein [4] [nM] | apparent KD of MS2 coat protein (input ligand: none) [nM]
1 | AGUACUGGCGCGUCGGUGUUGGUACAAUAAGCUUGUGAAACAUGAGGAUCACCCAUGUCCUCAUAAGCUCGUCUUAU [salish99_TOv2_r2_083] (puzzle: Sensor v3, turn-off variant 2) | 16.9 | 600 | 16.5 | – | – | –
2 | GCAGCGUAUGUAGGAUAUCGGUCAGUUUCUGAUCGAGAAGGACAUGAGGAUCACCCAUGUUAUUUCAUGCGUGAGCAUGGCUGC [JL ENG1 3.73] (Eterna round: R96, puzzle: Exclusion NG 1) | – | – | – | 271 | 31 | 37.1
3 | CCGCUCCGUGUAGGAUAUCGUUGUACCCUGCGGCGAGAAGGACAUGAGGAUCACCCAUGUAUGUUAUUAUCACGCGUGGCGCAC [Design 71] (Eterna round: R96, puzzle: Exclusion NG 1) | – | – | – | 18 | 15.8 | 19.3
4 | GUCAUACAUGAGGAUCACCCAUGUAAGGAUAUGCUAGCGGUCGGAAGACUGACUGCUAGCAGAAGGUACAUGAU [Mat - Mod of JL D80] (puzzle: Exclusion 1) | – | 61.5 | – | – | – | –
5 | CUGUGUAGACAGGAUAUGCUGUACAAAAGUACAGCAGAAGGGUCUACAUGAGGAUCACCCAUGUAUACUUCAUG [)mei Ex6 B24] (Eterna round: R97, puzzle: Exclusion 6) | – | – | – | 391 | – | 920
6 | UUUAGUUCAGGAUAUGUAGAUAUUAACAUGAGGAUCACCCAUGUAGAUCCUGAAUUGACUACAGAAGGGAGCAUUU [Mod of Brourd 17 - Jieux - Exclusion 5] (Eterna round: R97, puzzle: Exclusion 5) | – | – | – | 44.7 | – | 17.7
7 | GUCACAUGGGUGUAGAAUCACAUGAGGAUCACCCAUGUGACUAACAAGCUUUUUGCUCGUCUUAUGUCUAUGUGAAG [Stov1/17-A3] (Eterna round: R97, puzzle: Sensor, turn-off variant 1) | – | – | – | 58.7 | – | 32.1
8 | GAUCAUGCAGGAUAUACAUGAACCAUGAAAACAUGGUUUUCACAUGAGGAUCACCCAUGUAGAAGGGCAUGAUC [Omei Ex2 A7] (Eterna round: R97, puzzle: Exclusion 2) | – | – | – | 183 | – | 56.7
9 | AGCUGUGGCCGAGGAUAUCUAAUAUCUCAAACCGAAAUAUAAUCGGACAUGAGGAUCACCCAUGUAGAGAAGGCGGUCUCAGCA [Eli eng2 - 064] (Eterna round: R96, puzzle: Exclusion NG 2) | – | – | – | – | 23.6 | –
10 | UUUAAUUUUUUUUUUUUACAAGCUUUUUGCUCGUCUUAUACAUGAGGAUCACCCAUGUAGGUGGAGGGUAAAUUAUC [JMF 90] (puzzle: Sensor v3, turn-off variant 2) | 15.6 | 44.1 | 13.1 | – | – | –
11 | GAUUAUGCGAGCUUUAGGGACAUGAGGAUCACCCAUGUUCGUCUUAUUGAUCUGGAUACACUAACAUACCUAAAUCU [JMF 13] (puzzle: Sensor v3, turn-off variant 1) | 26.8 | 32.3 | 25.2 | – | – | –
12 | GGUCCACGAGGAUAUCGAUUAUAGUACAUGAGGAUCACCCAUGUUGUCCAGGUUUCGUUUCGAGAAGGCGUGGGUU [LRO-Ex5-01] (puzzle: Exclusion 5) | – | 88.1 | – | – | – | –
13 | GAGUGACAUGAGGAUCACCCAUGUGAGGAUAUGCGACGGACCAAAUUAACAAUAGAAGGCAGAAGGCGCAUAAA [Exclusion 1 V10] (puzzle: Exclusion 1) | 26.9 | 33.1 | 31.1 | – | – | –
14 | CGUGUCUUUUACGUGAGUGGUGGGUGCAACAGGUGGGUUACAUGAGGAUCACCCAUGUCCUCACUUGCUCGUCUUUU [Grok-var2-08] (puzzle: Sensor v3, turn-off variant 2) | 76.7 | 53.5 | 69.8 | – | – | –
15 | GCACGAAGUGUAGGAUAUCUGUGCGAUUAGCUCAGAGAAGGACACAUGAGGAUCACCCAUGUGUUCCAAUACUCAAAUACGUGC [Eli exng1 - 0622] (Eterna round: R96, puzzle: Exclusion NG 1) | – | – | – | 10.1 | 9.09 | 12.2
16 | CAGGAACCAGCAGGAUAUGUGCGGCUGCUAACGUGAACCAACAUGAGGAUCACCCAUGUAGGCACGCAGAAGGGCUCAGCCUGC [Orgevebe] (Eterna round: R96, puzzle: Exclusion NG 2) | – | – | – | 8.78 | 10.6 | 13.5
17 | AUCAGCUCGUCAGGAUAUGAACAUGAGGAUCACCCAUGUAAGAUCAAGCUGCUUCGGCAGCAAGUUCAGAAGGGACGAGCUGAU [ENG2/10-B3] (Eterna round: R96, puzzle: Exclusion NG 2) | – | – | – | 169 | 93.3 | 112
18 | CUGGGCGGAGGAUAUACAGGUUUAAUAUAAAUUAAAUUGGGACAUGAGGAUCACCCAUGUAGAAGGUUGUUUAG [-13.6, -11.8 kcal, 32% A] (Eterna round: R97, puzzle: Exclusion 2) | – | – | – | 23.4 | – | 22.1
19 | CGUAGCAAAGUGAGGAUAUCUAGAGCGAUAGCUCUAGAGAAGGCACAUGAGGAUCACCCAUGUGAUUAGCUACG [BmEx4/9-A4] (Eterna round: R97, puzzle: Brourd's mod of Exclusion 4) | – | – | – | 146 | – | 27.8
20 | GAUCAACAUGAGGAUCACCCAUGUGAGGAUAUGAUACUAUGUACUUCGGUACAUAGUAUCAGAAGGCACAUAAA [Ex1-3: 38] (puzzle: Exclusion 1) | – | 72.4 | – | – | – | –
21 | AAUUUUUGAUACCUUUAAUACAUGAGGAUCACCCAUGUUAUCGAGGAUAUGUAGAUGAAAUGAGAACAGAAGGCGAAGUAAGAG [JR_ExcNG3_Sub099] (Eterna round: R96, puzzle: Exclusion NG 3) | – | – | – | 41.5 | 3.24 | 15.6
22 | GAGUUAACAUGAGGAAUAUACAUGAGGAUCACCCAUGUUAACAAAUUUAUUGCUCGUCUUAUAACAACAAUUAACUC [Alarm 5 - Jieux - Sensor, turn-off variant 1] (Eterna round: R97, puzzle: Sensor, turn-off variant 1) | – | – | – | 105 | – | 111
23 | UUUUUAUAUGAAGGAUAUACUUAACAUGAGGAUCACCCAUGUGGUGUUGUGAGUGAGUGAGUUUAGUAGAAGGUCAAGUAUUUG [JMF's solution 42] (Eterna round: R96, puzzle: Exclusion NG 2) | – | – | – | 689 | 204 | 342
24 | GCCGAAAAUGUGAGGAUAUACCUAUGGAUACAUAGGUAGAAGGCACAUGAGGAUCACCCAUGUCCAAUAACGGC [Eli bmx4 4.25] (Eterna round: R97, puzzle: Brourd's mod of Exclusion 4) | – | – | – | 528 | – | 223
25 | CAGUACUGAGGAUAUACAUGAGGAUCACCCAUGUGUCCCAGCUAGGAUACUAGCAAAGGUAGAAGGCAGUACUG [Mat - Exclusion 3 - Eli Mod - D15] (Eterna round: R97, puzzle: Exclusion 3) | – | – | – | 945 | – | 39.2
